Patent publication US20230348603A1 (VERSEAU THERAPEUTICS, published 2023)

T1: Cynomolgus Monkey VSIG4-L-His (cynomolgus monkey)
T1 construct: ECD with His tag; also called cyVSIG4-L; cyno VSIG4-L-His
T1 chain: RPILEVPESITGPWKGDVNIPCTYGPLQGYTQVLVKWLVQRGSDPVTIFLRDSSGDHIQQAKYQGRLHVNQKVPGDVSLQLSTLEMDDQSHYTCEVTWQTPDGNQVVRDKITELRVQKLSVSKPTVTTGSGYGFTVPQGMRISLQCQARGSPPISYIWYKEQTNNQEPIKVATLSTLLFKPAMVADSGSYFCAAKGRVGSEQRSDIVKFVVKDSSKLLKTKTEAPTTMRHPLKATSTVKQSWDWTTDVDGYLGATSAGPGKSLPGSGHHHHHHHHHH

T2: Human VSIG4-L-His (human, UniProt Q9Y279 20-283)
T2 construct: long isoform ECD with His tag; also called hVSIG4-L
T2 sequence: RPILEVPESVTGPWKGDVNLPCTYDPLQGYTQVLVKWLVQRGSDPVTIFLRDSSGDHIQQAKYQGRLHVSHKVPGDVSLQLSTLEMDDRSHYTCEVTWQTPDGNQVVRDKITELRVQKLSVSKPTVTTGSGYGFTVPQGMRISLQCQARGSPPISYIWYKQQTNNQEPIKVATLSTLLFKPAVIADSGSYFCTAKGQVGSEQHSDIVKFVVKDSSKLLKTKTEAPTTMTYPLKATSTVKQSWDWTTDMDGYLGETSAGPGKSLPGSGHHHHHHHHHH

B1: 16E10 mouse Fab (periplasmic extract) (Fab, V domains shown)
VH: QVQLQQSGAELVRPGTSVKISCKASGYTFTNYWLGWVKQRPGHGLEWIGDIYPGGGYTNYNEKFKGKATLTADTSSSTAYMQLSSLTSEDSAVYFCAKFYYYGSSYYFDSWGQGTTLTVSS
VL: DIVLTQSPSSLSVSAGEKVTLSCKSSQSLLNSGNQENYLAWYQQKPGQPPKLLIYGASTRESGVPDRFTGSGSGTDFTLTISSVQAEDLAVYYCQNDHSYPLTFGAGTKLELK
notes: mouse Fab with C-terminal His6-c-myc tag
B2: 12A08 mouse Fab (periplasmic extract) (Fab, V domains shown)
VH: EVMLVESGGGLVKPGGSLKLSCAASGFTFDDFYMYWVRQTPEKRLEWVASISDGGTYTYYPDSVKGRFTISRDNAKNTLYLQLSSLKSEDTAMYYCARGVDKYYYAMDYWGQGTSVTVSS
VL: QILLTQSPAIMSASPGEKVTITCSASSSVSYMHWFQQKPGTSPKLWIYSTSNLASGVPARFSGSGSGTSYSLTISRMEAEDAATYYCQQRSSYPLTFGAGTKLELK
notes: as for B1
B3: 14D12 mouse Fab (periplasmic extract) (Fab, V domains shown)
VH: QIQLVQSGPELKKPGETVKISCKASGYTFTNYGMNWVKQTPGKGLKWMGLINTYTGEPTYADDFKGRFAFSLETSASTAYLQINNLKNEDMATYFCARERIYGYLHYFDYWGQGTTLTVSS
VL: DVVMTQTPASLAVSLGQRATISCKASQSVDYDGDSYMNWYQQKPGQPPKLLIYAASNLESGIPARFSGSGSGTDFTLNIHPVEEEDAATYYCQQSNEDPRTFGGGTKLEIK
notes: as for B1
B4: 12A12 mouse Fab (periplasmic extract) (Fab, V domains shown)
VH: QVQMKQSGAELAKPGASVKMSCKASGYTFTNYWMHWVKQRPGQGLEWIGYINPSTGYTDYNQNFKDRATLTADKSSSTAYMQLSSLTSEDSAVYYCIRGSDYYGRDYWGQGTTLTVSS
VL: DIQMTQTTSSLSASLGDRVTISCRASQDISNYLNWYQQKPDGTLKLLIYYTSRLHSGVPSRFSGSGSGTDYSLTISNLEQEDIATYFCRQGNTLPWTFGGGTKLEIK
notes: as for B1
B5: 14C05 mouse Fab (periplasmic extract) (Fab, V domains shown)
VH: EVMLVESGPELKKPGETVKISCKASGYTFTNYGMNWVKQAPGKGLKWMGSINTYTGEATYADDFKGRFAFSLETSANTAYLQIDNLKNEDTATYFCARGDYYGRGTWFAYWGQGTLVTVSA
VL: ETTVTQSHKFMSTSVGDRVSITCKASQDVSTAVAWYQQKPGQSPKLLIYSASYRYPGVPDRFTGSGSGTDFTFTISSVQAEDLAVYYCQQDYSSPWTFGGGTKLEIK
notes: as for B1

Biological target: T3, Human VSIG4-L-Fc (human)
T3 construct: also called hVSIG4-L-Fc; hVSIG4-L
Test: ELISA, Fab P.E. 1:5 on coated antigen;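 note: mouse Fab P.E. samples in 1% skimmed milk PBS, bound to antigen-coated wells for 1 h at room temperature, read as absorbance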
Target sequence in this assay (chain, as listed by the source limits assumed): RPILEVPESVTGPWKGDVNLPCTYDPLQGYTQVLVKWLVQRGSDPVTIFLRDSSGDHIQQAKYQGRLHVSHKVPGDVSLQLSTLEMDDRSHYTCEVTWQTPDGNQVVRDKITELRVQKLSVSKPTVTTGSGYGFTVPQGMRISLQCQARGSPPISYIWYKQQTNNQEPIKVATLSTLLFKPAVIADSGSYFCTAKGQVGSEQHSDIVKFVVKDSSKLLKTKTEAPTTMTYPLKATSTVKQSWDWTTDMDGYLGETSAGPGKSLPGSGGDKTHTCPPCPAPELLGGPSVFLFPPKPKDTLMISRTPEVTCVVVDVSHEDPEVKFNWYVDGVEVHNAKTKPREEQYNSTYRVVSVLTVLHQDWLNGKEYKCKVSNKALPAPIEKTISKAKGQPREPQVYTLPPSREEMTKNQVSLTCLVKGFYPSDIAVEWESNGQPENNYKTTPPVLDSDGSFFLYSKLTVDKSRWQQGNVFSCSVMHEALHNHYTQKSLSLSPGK
Method: (§1) Coated microplates were blocked with dried skimmed milk at 4% in PBS. P.E. samples of the mouse unique Fab sequences were diluted 1:5 in assay buffer (1% dried skimmed milk in PBS), and 100 μl of diluted sample was added onto the coated wells and incubated for one hour at room temperature. […] Optical density (OD) at 450 nm was determined using a standard absorbance microplate reader.

Compared with B1, B2 is higher in “ELISA OD450” value: 1.86 OD450 for the first, 4.45 OD450 for the second.

Compared with B3, B4 is higher in “ELISA OD450” value: 4.32 OD450 for the first, 4.42 OD450 for the second.

With B5 the “ELISA OD450” value was 4.33 OD450.

Biological target: T4, Human VSIG4-S-Fc (human)
T4 construct: short isoform ECD fused to human Fc1; also called hVSIG4-S
Test: ELISA, Fab P.E. 1:5 on coated antigen;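 note: mouse Fab P.E. samples in 1% skimmed milk PBS, bound to antigen-coated wells for 1 h at room temperature, read as absorbance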
Method: as §1

First: B1
Second: B2
The “ELISA OD450” value of the first is lower: 1.32 OD450 for the first, 4.09 OD450 for the second.

B3 and B4 are the same in “ELISA OD450” value: 4.18 OD450 for the first, 4.18 OD450 for the second.

B5 was tested, and the “ELISA OD450” value was 4.32 OD450.

Biological target: T1, Cynomolgus Monkey VSIG4-L-His
Test: ELISA, Fab P.E. 1:5 on coated antigen;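 note: mouse Fab P.E. samples in 1% skimmed milk PBS, bound to antigen-coated wells for 1 h at room temperature, read as absorbance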
Method: as §1

Going from B1 to B2, the “ELISA OD450” value rises from 1.88 OD450 to 4.27 OD450.

Going from B3 to B4, the “ELISA OD450” value rises from 4.32 OD450 to 4.37 OD450.

B5 was tested, and the “ELISA OD450” value was 4.37 OD450.

Biological target: T3, Human VSIG4-L-Fc
Test: blocking ELISA, biotin-C3b on coated hVSIG4-L-Fc
Method: (§2) Coated microplates were blocked with casein (Sigma-Aldrich, St. Louis, MO) at 1% in PBS. […] One hundred ill of the mixed sample was added onto the coated wells and incubated for one hour at room temperature. […] OD at 450 nm was determined using a standard absorbance microplate reader.

Compared with B1, B2 is higher in “Percent Blocking C3b” value: 7.1% for the first, 57.6% for the second.

First: B3
Second: B4
The “Percent Blocking C3b” value of the first is lower: 70.3% for the first, 74.8% for the second.

B5 was tested, and the “Percent Blocking C3b” value was 88.8%.

Biological target: T3, Human VSIG4-L-Fc
Test: blocking ELISA, biotin-iC3b on coated hVSIG4-L-Fc
Target sequence in this assay (chain, as listed by the source limits assumed): as above
Method: as §2

Going from B1 to B2, the “Percent Blocking iC3b” value rises from 7.6% to 53.4%.

Going from B3 to B4, the “Percent Blocking iC3b” value rises from 56% to 76.5%.

For B5, the “Percent Blocking iC3b” value was 88.7%.

Biological target: T2, Human VSIG4-L-His
Test: SPR (Biacore T200), Fab P.E. 1:5 over immobilised antigen
Method: Off-rate values of the mouse unique Fab clones were determined using surface plasmon resonance (SPR) in Biacore™ T200 equipment (GE Healthcare, Chicago, IL). […] The immobilization was performed in accordance with a method provided by Biacore and by using the NHS/EDC kit (GE Healthcare, Chicago, IL). […] Sixty μl of Fab P.E. samples, diluted 1:5 in HBS-EP+ assay buffer (0.1 M HEPES, 1.5 M NaCl, 0.03 M EDTA and 0.5% v/v Surfactant P20), were injected and passed through the flow cells at a flow rate of 30 μl/min. After binding of the samples to VSIG4 protein, the off-rate was monitored for a period of five minutes. The flow cell surface was regenerated by a double injection of 10 μl of 1 mM glycine at pH 1.5 in 1 M sodium chloride at 30 μl/min. Off-rate analysis was done using the BIAevaluation software (GE Healthcare, Chicago, IL) and using a 1:1 dissociation kinetic fit curve.

Compared with B1, B2 is 1.9-fold lower in koff: 0.025 s⁻¹ for the first, 0.013 s⁻¹ for the second.

Going from B3 to B4, the koff falls from 0.0063 s⁻¹ to 0.0038 s⁻¹ (1.7-fold).

Work on B5 yielded a koff of 0.00037 s⁻¹.
